Assay results reported in patent publication US8124835B2, “Acyl-coa-dependent diacylglycerol acyltransferas 1 (DGAT1) gene from Tropaeolum majus, protein encoded thereby and uses thereof” (National Research Council of Canada, priority 2006, dated 2012).

Tests used:
DGAT activity = assay: Substrate preference of recombinant TmDGAT1 expressed in yeast H1246MATα; format: biochemical, Tropaeolum majus
Procedure: FIG. 8. Expression of TmDGAT1 in yeast mutant H1246 MATα. DGAT assays were performed on cell lysates of yeast quadruple mutant (DGAT-, PDAT-, ASAT1^−, ASAT2^−) strain:H1246 MATα transformed with pYES2.1/V5-His-TOPO plasmid only (Control) and TmDGAT1/pYES2.1 in the presence of ^14C-labeled 16:0-, 18:0-, 18:1-, eicosenoyl-(20:1 Δ11) and 22:1 acyl-CoAs and sn-1,2-diolein (18:1 DAG) or sn-1,2-dierucin (22:1 DAG). The enzyme activity is scarcely detected in the yeast strain harboring the empty control vector, and has been subtracted from the enzyme activities detected from the H1246MATα strain expressing the TmDGAT1.
The TmDGAT1 ORF (SEQ. ID. NO: 2) in pYES2.1/V5-His-TOPO plasmid was transformed into a quadruple yeast mutant H1246MATα (Sandager et al, 2002) using the S.c. EasyComp™ transformation Kit (Invitrogen). Yeast cells transformed with pYES2.1/V5-His-TOPO plasmid only were used as a control. Transformants were selected by growth on synthetic complete medium lacking uracil (SC-ura), supplemented with 2% (w/v) glucose. The colonies were transferred into liquid SC-ura with 2% (w/v) glucose and grown at 28° C. overnight. The overnight cultures were diluted to an OD of 0.4 in induction medium (SC-ura+2% Galactose+1% Raffinose), and were induced for 24-36 hours at 28° C. Cells were collected and broken using glass beads. The crude protein concentration in the lysates was normalized using the Biorad assay based on the method of (Bradford, 1976) and assayed for DGAT activity. DGAT assays were conducted at pH 7.4, with shaking at 100 rev/min in a water bath at 30° C. for 60 min. […] The ^14C-labelled TAGs were isolated and counted as described above for insect cell expression.
H1246MATα yeast cells harboring an empty pYES2.1 vector plasmid were used as a control. […] In both cases, the lowest level of TAG was detected when using the saturated 16:0-acyl-CoA. […]

[1] = system: B. napus HEAR breeding line 2026; assay: Over-expression of TmDGAT1 in B. napus HEAR breeding line 2026; format: in vivo, Brassica napus
Source text: FIG. 12. Over expression of the TmDGAT1 in B. napus High erucic acid rapeseed breeding line 2026 (courtesy of Dr. P. B. E. McVetty, University of Manitoba). Effect of transformation of B. napus with the TmDGAT1 cDNA under control of the napin promoter on (A) oil content (as percentage of mature seed dry weight), (B) Total oil/100 seeds, (C) Relative net oil content (with the control average set at 100%). T1 seeds of B. napus plasmid-only control transgenic lines (napin:pSE; black bar) and napin:TmDGAT1 transgenic lines (hatched bars) are shown ±SE.
The final binary vector (napin/DGAT/nos) was verified and electroporated into Agrobacterium tumefaciens cells strain GV3101 containing helper plasmid pMP90 (Koncz and Schell, 1986). Plasmid integrity was verified by DNA sequencing following its re-isolation from A. tumefaciens and transformation into E. coli.
Arabidopsis thaliana (ecotype Columbia) WT and mutant line AS11 (Katavic et al., 1995; Zou et al, 1999) were transformed by a vacuum infiltration method (Clough and Bent, 1998). B. napus HEAR breeding line 2026 (courtesy of Dr. P. B. E. McVetty, University of Manitoba) was transformed utilizing hypocotyl explants and a modified method of DeBlock et al., 1998. Modifications of the hypocotyl explant transformation method were described previously (Zou et al., 1997).
Total lipid extracts (TLEs) were prepared as described above, and lipid class analyses, determination of oil content and composition in all seed lines from WT and the AS11 transgenic plants and in nasturtium seed were performed as described previously (Taylor et al., 1991; 1992 a & b; Zou et al., 1997; Jako et al., 2001). In all cases, the data represent the averages of three to five determinations. Intact-seed transmethylation followed by gas chromatography (GC) analysis provided equally reproducible analyses of Arabidopsis seed oil as reported by Li et al., (2006). […]

[2] = acceptor sn-1,2-diolein or sn-1,2-dierucin

B1: TmDGAT1: Tropaeolum majus acyl-CoA-dependent diacylglycerol acyltransferase 1, 518 amino acids (SEQ ID NO: 3), encoded by ORF SEQ ID NO: 2 (protein, listed as Tropaeolum majus)
chain: MAVAESSQNTTTMSGHGDSDLNNFRRRKPSSSVIEPSSSGFTSTNGVPATGHVAENRDQDRVGAMENATGSVNLIGNGGGVVIGNEEKQVGETDIRFTYRPSFPAHRRVRESPLSSDAIFKQSHAGLFNLCIVVLIAVNSRLIIENLMKYGWLIDTGFWFSSRSLGDWSIFMCCLTLPIFPLAAFIVEKLVQRNHISELVAVLLHVIVSTAAVLYPVIVILTCDSVYMSGVVLMLFGCIMWLKLVSYAHTSSDIRTLAKSGYKGDAHPNSTIVSCSYDVSLKSLAYFMVAPTLCYQPSYPRSSCIRKGWVVRQFVKLIVFIGLMGFIIEQYINPIVRNSKHPLKGDFLYAIERVLKLSVPNLYVWLCMFYSFFHLWLNILAELLRFGDREFYKDWWNAKTVAEYWKMWNMPVHRWMVRHLYFPCLRNGIPKEGAIIIAFLVSGAFHELCIAVPCHVFKLWAFIGIMFQVPLVLITNYLQEKFSNSMVGNMIFWFIFCILGQPMCVLLYYHDLINLKEK
DGAT activity; [2]
  DGAT activity using 20:1-CoA compared to 18:1-CoA: about 2 fold
  DGAT activity using 22:1-CoA compared to 18:1-CoA: ~3 fold
DGAT activity; data not shown
  activity with radiolabeled free fatty acids as acyl donors: no activity
[1]; T1 generation compared to average pSE plasmid-only control lines
  oil content increase: 3.5-4.5%
[1]; T1 seeds
  increase in oil content on a per 100-seed basis: 20 to 30 mg
[1]; T1 seeds compared with average of pSE controls
  net overall oil increase: ≤ 15%
